Sequences and labels used below:
B1: HDV Ribozyme (parent)
chain: GGCCGGCAUGGUCCCAGCCUCCUCGCUGGCGCCGGCUGGGCAACAUUCCGAGGGGACCGUCCCCUCGGUAAUGGCGAAUGGGACCCA

Among the data in the RNAGym collection of RNA variant scans (doi:10.7554/elife.80360) are self-cleavage values, retold here.

The data set covers variants of B1. In words: self-cleavage, relative activity (ratio to wild type); higher = more cleavage; co-transcriptional.
For GGCCGGCAUGGUCCCAGCCUCAUCGCUGGCGCCGGCUGGGCAACAUUCCGAGGGGACCGUCCCCUCGGUAAGGGCGAAUGGGACCCA, the self-cleavage turned out to be 0.332.

Take GGCCGGCAUUGUCCCAGCCUCCUCGCUGGCGCCGGCUGGGCAACAUUCCGAGGGGACCGUCCCCUCGGUAAUGGCGAAAGGGACCCA: the self-cleavage turned out to be 0.352.

As to GGCCGGCAUGGUCCCAGCCUCCUCGUUGGCGCCGGCUGGGCAACAUUCCGAGGGGACCGUCCCCUCGGUAAUGGCGAAUGAGACCCA, the self-cleavage was determined as 0.888.

Take GCCCGGCAUGGUCCCAGCCUCCUCGCUGGCGCCGGCUGGGCCACAUUCCGAGGGGACCGUCCCCUCGGUAAUGGCGAAUGGGACCCA: the self-cleavage was determined as 0.122.

Turning to GGCCGGCAUGGUCCCAGCCUCCUCGCUGGCGCCGGCUGGGCAACAUUCCCAGGGGACCGUCCCCUUGGUAAUGGCGAAUGGGACCCA, the self-cleavage amounted to 0.954.

Turning to GGCCUGCAUGGUCCCAGCCUCCUCGCUGGCGCCGGCUGGGCCACAUUCCGAGGGGACCGUCCCCUCGGUAAUGGCGAAUGGGACCCA, the self-cleavage is 0.178.

With GGCCGGCAUGGUCCCAGCCUCCUCGCUGGCGCCCGCUGGGCAACAUUCCGAGGGGACCGUCCCCUCGUUAAUGGCGAAUGGGACCCA, the self-cleavage was determined as 0.199.

With GGCCGGCAUGGUCCCAGCCUCCUCGCUGGCGCCGGCUGGGCAACAUUCCGAGGGGACCGUCCCCACGGUAAUGGCGAAUGGGACCCU, the self-cleavage was found to be 0.96.

As for GCCCGGCAUGGUCCCAGCCUCCUCGCUGGCGCCGGCUGGGCAACAUUUCGAGGGGACCGUCCCCUCGGUAAUGGCGAAUGGGACCCA, the self-cleavage worked out at 0.0923.

As for GGCCGGCAUGGUCCCAGCCUCCUCGCUGGCGCCGGCUGGGCAACAUUCCGAGGGGACCGUCCCACCGGUAAUGGCGAAUGGGACCCA, the self-cleavage was determined as 0.831.

Take GGCAGGCAUGGUCCCAGCCUCCUCGCUGGCGCCGGCUGGGCAACAUUCCGAGGGGACCGUCCCCUCGGUAAUGGAGAAUGGGACCCA: the self-cleavage was 0.157.

For the variant GGCCGGCAUGGUCCCAGCCUCCUCGCUGGCGCCGGCUGGGCAACAUUCCGAGGGGACCGUCCCCUGGGUAAUGGCGAAUGGGACCCG, the self-cleavage turned out to be 1.06.

As to GGCCGACAUGGUCCCAGCCUCCUCGCUGGCGCCGGCUGGGCAACAUUCCGAGGGGACCGUUCCCUCGGUAAUGGCGAAUGGGACCCA, the self-cleavage came out at 0.899.

Regarding GGCCGGCAUGGUCCCAGCCUCCUCGCUGGCGCCGGCUGGGCAACCUUCCGAGGAGACCGUCCCCUCGGUAAUGGCGAAUGGGACCCA, the self-cleavage came to 0.597.

GGCCGGCAUGGUCCCAGGCUCCUCGCUGGCGCCGGCUGGGCAUCAUUCCGAGGGGACCGUCCCCUCGGUAAUGGCGAAUGGGACCCA: the self-cleavage stood at 0.189.

In the case of GGCCGGCAUGGUCCCUGCCUCCUCGCUGGCGCCGGCUGGACAACAUUCCGAGGGGACCGUCCCCUCGGUAAUGGCGAAUGGGACCCA, the self-cleavage is 0.928.

In the case of GGCCGGCAUGGUCCCAGCCUCCUCGCUGGCGCCGGCUGGGCAACAUUCCGAGGGGACCGUCCCCUCGGUAAUGACGAAUGGGACCGA, the self-cleavage was determined as 0.375.

For GGCCGGCAUGGUCCCAGCCUCCUCGCUGGCGCCGGCUGGGCAACAUUCUGAGGGGACCGUCCCCGCGGUAAUGGCGAAUGGGACCCA, the self-cleavage is 0.939.

Consider GGCCGGCAUGGUCCCAGCCUCCUCGCUGGCGCCGGCUGGGCCACAUUCCGAGGGGACCGUCCCCUCGGUAAUGGCGAAUGGGCCCCA, for which the self-cleavage was determined as 0.101.

Turning to GGCCGGCAUGGUCCCAGCCUACUCGCUGGCGCCGGCUGGGCAACAUUCCGAGGGGACCGUCCCCUAGGUAAUGGCGAAUGGGACCCA, the self-cleavage was determined as 0.0755.

As for GGCCGGCAUGGUCCCAGCCUCCUCCCUGUCGCCGGCUGGGCAACAUUCCGAGGGGACCGUCCCCUCGGUAAUGGCGAAUGGGACCCA, the self-cleavage was determined as 0.0773.

For the variant GGCCGGCAUGGUCCCAGCCUCCUCGCUCGCGCCGGCUGGGCAACAUUCCGAGGGGACCGGCCCCUCGGUAAUGGCGAAUGGGACCCA, the self-cleavage worked out at 0.

With GGCCGGCAUGGUCCCAGCCUCCUCGCUGGCGCCGGCUGGGCAACAUUCCGAGGGGACCGUCCCCUCGGCAACGGCGAAUGGGACCCA, the self-cleavage was 0.9.

Turning to GGCCGGCAUCGUCCCAGCCUCCUCGCUGGCGCCGGCUGGGCUACAUUCCGAGGGGACCGUCCCCUCGGUAAUGGCGAAUGGGACCCA, the self-cleavage came to 0.289.

Consider GGCCGGCAUGGCCCCAGCCUCCUCGCUGGCGCCGGCUGGGCAACAUUCCGAGGGGACCAUCCCCUCGGUAAUGGCGAAUGGGACCCA, for which the self-cleavage is 0.185.

For GGCCGGCAUGGUCCCAGCCUCCUCGCUGGCGCCAGCUGGUCAACAUUCCGAGGGGACCGUCCCCUCGGUAAUGGCGAAUGGGACCCA, the self-cleavage was 0.0685.

Turning to GGCCGGAAUGGUCCCAGCCUCCUCGCUGGCGCCGGCUGGGCAACAUUCCGAGUGGACCGUCCCCUCGGUAAUGGCGAAUGGGACCCA, the self-cleavage stood at 0.544.

On to GGCCGGCAUGGUCCCAGCCUCCUCGCUGGCGCCCGCUGGGCAACAUUCCGAGGGGACCGUCCCCUGGGUAAUGGCGAAUGGGACCCA, for which the self-cleavage turned out to be 0.169.

Regarding GGCCGGCAUGGUCACAGCCUCCUCGCUGGCGCCGGCUGGGCAACAUUCCGAGGGGACCGUCCCCUCGGUAAUGUCGAAUGGGACCCA, the self-cleavage amounted to 0.281.

As for GGCCGACAUGGUUCCAGCCUCCUCGCUGGCGCCGGCUGGGCAACAUUCCGAGGGGACCGUCCCCUCGGUAAUGGCGAAUGGGACCCA, the self-cleavage came out at 0.145.

Consider GGCCGGCAUGGUCCCAGCCUCCUCGCGGGCGCCGGCUGGGCAACAUUCCGAGGGGACCGUCCCCUCGGUAAUGGCGAAUGGUACCCA, for which the self-cleavage is 0.095.

In the case of GGCCGGCAUGGUCCCAGCCUCCCCGCUGGCGCCGGCUGGGCAACAUUCCGAGGGGACCGUCCCCUCGGAAAUGGCGAAUGGGACCCA, the self-cleavage was found to be 0.8.

Consider GGCCGGCAUGGUCCCAGCCUCCUCGCUGGCGCCGGCUGGGCAACUGUCCGAGGGGACCGUCCCCUCGGUAAUGGCGAAUGGGACCCA, for which the self-cleavage was found to be 0.787.

GGCCGGCAUGGUCCCAGCCUCCUCCCUGGCGCCGUCUGGGCAACAUUCCGAGGGGACCGUCCCCUCGGUAAUGGCGAAUGGGACCCA: the self-cleavage is 0.0692.

In the case of GGCCGGCAUGGUCCCAGCCUCCUCGCUGGCGCCGGCUGAGCAACAUUCCGAGGGGACCUUCCCCUCGGUAAUGGCGAAUGGGACCCA, the self-cleavage amounted to 0.598.

For the variant GGCCGGCAUGGUCCCAGCCUCCUCGCUGGCGCCGGCUGGGCAACAUUCCGAGGGGACCGUCCCCUCGGUAAUGGCGAACUGGACCCA, the self-cleavage stood at 0.267.

In the case of GGCCGGCAUGGUCCCAGCCUCCUCGCUGGCGCCGGCGGGGCAACAUUCCGAGGGGACCGUCCACUCGGUAAUGGCGAAUGGGACCCA, the self-cleavage stood at 0.123.

As for GGCCGGCAUGGUCCCAGCCUCCUCGCUGGCGCAGGCUGGGCAACAUUCCGAGGGGACCGUCCCCUCGGUAAUGGCGAAUGGGCCCCA, the self-cleavage is 0.0449.

As to GGCCGGCAUGGUCCCAGCCUCCUCGCUGGCGCCGGCUGGGCAACAUUCCGAGGGGACCGUCCCCUCGGUAAUGGCGAAUUGGACCGA, the self-cleavage was 0.243.

For the variant GGCCGGCAUGUUCCCAGCCUCCUCGCUGGCGCCGGCUGGGCAACAUUCCGCGGGGACCGUCCCCUCGGUAAUGGCGAAUGGGACCCA, the self-cleavage turned out to be 0.324.

Take GGCCGGCAUGGUCGCAGCCUCCUCGCUGGCGCCGGCUGGGCAACAUUCUGAGGGGACCGUCCCCUCGGUAAUGGCGAAUGGGACCCA: the self-cleavage was determined as 0.529.

For the variant GGCCGGCAUGGUCCCAGCCUCCGCGGUGGCGCCGGCUGGGCAACAUUCCGAGGGGACCGUCCCCUCGGUAAUGGCGAAUGGGACCCA, the self-cleavage was determined as 0.831.

GGCCGGCAUGGCCCCAGCCUCCUCGCUGGCGCCGGCUGGGCAACAUUCUGAGGGGACCGUCCCCUCGGUAAUGGCGAAUGGGACCCA: the self-cleavage turned out to be 0.166.

In the case of GGCCGGCAUGGUCCCAGCCUCCUCGCUGGCGCCGGCUGGGCAACAUUCCAAGGGGCCCGUCCCCUCGGUAAUGGCGAAUGGGACCCA, the self-cleavage worked out at 1.25.

In the case of GGCCGGCAUGGUCCCAGCCUCCUCGCUGGCGCCGGCUGGCCAACAUUCCGAGGGGACCGACCCCUCGGUAAUGGCGAAUGGGACCCA, the self-cleavage turned out to be 0.25.

For GGCCGGCAUGGUCCCAGCCUCCUCGCUGGCGCCUGCUGGGCAACAUUCCGAGGGGACCGUCCCCUCGGAAAUGGCGAAUGGGACCCA, the self-cleavage is 0.102.

As for GGCCGGCAUGGUCCCAGGCUCCUCGCUGGCGCAGGCUGGGCAACAUUCCGAGGGGACCGUCCCCUCGGUAAUGGCGAAUGGGACCCA, the self-cleavage is 0.

For GGCCGGCAUGGUCCCAGCCGCCUCGCUGGCGCCGGCUGGGCAACAUUCCGAGGGGACCGUCCCCUCGGUAAUGGCUAAUGGGACCCA, the self-cleavage amounted to 0.388.

For GGCCGGCAUGGUCUCAGCCUCCUCGCUGGCGCCGGCUGGGCAACAUUCGGAGGGGACCGUCCCCUCGGUAAUGGCGAAUGGGACCCA, the self-cleavage was determined as 0.831.

On to GGCCGGCAUGGUCCCAGCGUCCUCGCUGGCGCCGGCUCGGCAACAUUCCGAGGGGACCGUCCCCUCGGUAAUGGCGAAUGGGACCCA, for which the self-cleavage was 0.0639.

As for GGCCGGCAUGGUCCCAGCCUACUCGCUGGCGCCGGCUGGGCAACAUUCCGAGGGGACCGUCCCCUCGGUAAUGGCGAAUGGGAUCCA, the self-cleavage worked out at 0.0489.

In the case of GGCCGGCAUGAUCCCAGCCUCCUCGCUGGCGCCGGAUGGGCAACAUUCCGAGGGGACCGUCCCCUCGGUAAUGGCGAAUGGGACCCA, the self-cleavage was 0.0446.

On to GGCCGGCAUGGUCCCAGCCUCCUCGCUGGCGCCGGCUGGGCAACAUUCCAAGGGGACCGACCCCUCGGUAAUGGCGAAUGGGACCCA, for which the self-cleavage is 0.776.

Regarding GGCCCGCAUGGUCCCAGCCUCCUCGCUGGCGCCGGCUGGGCAACACUCCGAGGGGACCGUCCCCUCGGUAAUGGCGAAUGGGACCCA, the self-cleavage was 0.26.

As to GGCCGGCAUGGUCCCAGCCUCCUCGCUGGCGCCGGCUGGGCAACAUACCGAGGGGACCGUCCCCUCGGUAAUGGCGCAUGGGACCCA, the self-cleavage stood at 0.

On to GGCCGGCAUGGUCCCAGACUCCUCGCUGGCGCCGGCUGGGCAACAUUCCGAGGGGACCGUCCCCUCGGUAAUGGCGAAUGGGACCCU, for which the self-cleavage was found to be 0.126.

With GGCCGGCAUGGUCCCAGCCUCCUCGCUGGCGCCGGCGGGGCCACAUUCCGAGGGGACCGUCCCCUCGGUAAUGGCGAAUGGGACCCA, the self-cleavage came to 0.308.

As to GGCCCGCAUGGUCCCAGCCUCCUCGCUGGCGCCGGCUGGGCAACAUUCCGAGGGGACCGUCCCCUCGGUAAUGGCGAAUGGGACCCA, the self-cleavage was 0.213.

Regarding GGCCGGCAUGGUCCCAGCCUCCUCGCUGGCGCCGGCUGGGCAACAUUCAGAGGGGACCGUCCCCUCCGUAAUGGCGAAUGGGACCCA, the self-cleavage is 1.04.

On to GGCCGGCAUGGUCCCAGCCUCCUCGCUGGCGCCGGCGGGGCAACAUUCCGAGGGGACCGUCCCCUCGGUAAUGGCGAAUGGGACGCA, for which the self-cleavage was determined as 0.201.

Regarding GGCCGGCAUGGUCCCAGCCUCCUCGCUGGCGCCGGCAGGGCAACAUUCCGUGGGGACCGUCCCCUCGGUAAUGGCGAAUGGGACCCA, the self-cleavage worked out at 0.

As to GGCCGGCAUGGUCCCAGCCUCCUCGCUGGCGCCGACUGGGCAACAUUUCGAGGGGACCGUCCCCUCGGUAAUGGCGAAUGGGACCCA, the self-cleavage is 0.499.

Take GGCCGGCAUGGUCCCAGCCUCCUCGCUGGCGCCGGCUGGGCAACAUUCCGAGGAGACCGUCCCCUCGGUACUGGCGAAUGGGACCCA: the self-cleavage was 0.753.

On to GGCCGGCAUGGCCCCAGCCUCCUCGCUGGCGCCGGCUGGGCAACAUUCCGAGGGGACCGUUCCCUCGGUAAUGGCGAAUGGGACCCA, for which the self-cleavage worked out at 0.404.
